Test results as given in publication PMC4167695, “Activation of c-Myc and Cyclin D1 by JCV T-Antigen and β-Catenin in Colon Cancer” (PLoS ONE, 2014).

Target: T1, β-catenin (human (endogenous in HCT116), UniProt P35222 1-781)
T1 sequence (looked up): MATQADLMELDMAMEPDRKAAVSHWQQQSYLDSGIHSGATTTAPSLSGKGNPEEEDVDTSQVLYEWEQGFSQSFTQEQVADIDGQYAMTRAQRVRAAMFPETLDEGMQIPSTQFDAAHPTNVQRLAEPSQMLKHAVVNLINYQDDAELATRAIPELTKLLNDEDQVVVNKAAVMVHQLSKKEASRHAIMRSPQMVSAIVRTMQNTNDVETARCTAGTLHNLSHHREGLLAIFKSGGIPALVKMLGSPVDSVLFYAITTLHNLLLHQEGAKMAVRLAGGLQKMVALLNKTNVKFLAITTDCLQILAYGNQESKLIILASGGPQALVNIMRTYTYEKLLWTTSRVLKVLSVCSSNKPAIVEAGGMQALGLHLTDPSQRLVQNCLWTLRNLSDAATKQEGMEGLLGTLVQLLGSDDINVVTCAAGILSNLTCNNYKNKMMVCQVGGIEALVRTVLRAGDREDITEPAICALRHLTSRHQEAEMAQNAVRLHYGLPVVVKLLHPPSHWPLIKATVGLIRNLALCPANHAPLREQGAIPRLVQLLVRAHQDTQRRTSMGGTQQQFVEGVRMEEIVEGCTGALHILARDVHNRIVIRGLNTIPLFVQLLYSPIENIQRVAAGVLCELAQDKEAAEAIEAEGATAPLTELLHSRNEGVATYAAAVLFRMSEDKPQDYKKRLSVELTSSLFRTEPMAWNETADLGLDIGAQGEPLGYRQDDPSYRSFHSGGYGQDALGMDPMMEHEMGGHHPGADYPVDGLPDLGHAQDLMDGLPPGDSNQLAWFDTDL
Assay: cell-based or functional assay

B1: JCV T-Antigen (natural protein)
chain: MDKVLNREESMELMDLLGLDRSAWGNIPVMRKAYLKKCKELHPDKGGDEDKMKRMNFLYKKMEQGVKVAHQPDFGTWNSSEVPTYGTDEWESWWNTFNEKWDEDLFCHEEMFASDDENTGSQHSTPPKKKKKVEDPKDFPVDLHAFLSQAVFSNRTVASFAVYTTKEKAQILYKKLMEKYSVTFISRHGFGGHNILFFLTPHRHRVSAINNYCQKLCTFSFLICKGVNKEYLFYSALCRQPYAVVEESIQGGLKEHDFNPEEPEETKQVSWKLVTQYALETKCEDVFLLMGMYLDFQENPQQCKKCEKKDQPNHFNHHEKHYYNAQIFADSKNQKSICQQAVDTVAAKQRVDSIHMTREEMLVERFNFLLDKMDLIFGAHGNAVLEQYMAGVAWIHCLLPQMDTVIYDFLKCIVLNIPKKRYWLFKGPIDSGKTTLAAALLDLCGGKSLNVNMPLERLNFELGVGIDQFMVVFEDVKGTGAESRDLPSGHGISNLDCLRDYLDGSVKVNLERKHQNKRTQVFPPGIVTMNEYSVPRTLQARFVRQIDFRPKAYLRKSLSCSEYLLEKRILQSGMTLLLLLIWFRPVADFAAAIHERIVQWKERLDLEISMYTFSTMKANVGMGRPILDFPREEDSEAEDSGHGSSTESQSQCFSQVSEASGADTQENCTFHICKGFQCFKKPKTPPPK
- Cyclin D1 promoter luciferase activity in HCT116 cells co-transfected with T-Antigen and β-catenin, over empty vector controls: 11.7 fold
- TOPflash (TCF-dependent luciferase reporter) activity in HCT116 cells co-transfected with T-Antigen and exogenous β-catenin, 24 hours post-transfection, normalized to FOPflash: 113 fold
- c-Myc promoter luciferase activity in HCT116 cells co-transfected with T-Antigen and β-catenin, over empty vector controls: 6.1 fold
